We go through 40 sequences from the nanobody polyreactivity screen of Harvey et al. (2022).

The series can be described thus: yeast display, Sf9 membrane polyspecificity reagent, FACS + sequencing; frameworks hold sequencing errors. Put shortly:
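Sorting gates, low and high (top ~1%), were placed on anti-HA fluorescence to track expression and on streptavidin fluorescence to track reagent binding. A clone's polyreactivity label is taken from the gate it came out of. The reagent was 10% biotinylated, detergent-solubilized Sf9 membrane, applied for 1 hour at 4 °C to galactose-induced yeast display cells.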
With “QVQLVESGGGLVQAGGSLRLSCAASGRTFQYNAMGWYRLAPGKERELVAAISSGGSTYYADSVKGRFSISRDNAKNTVYLQMNSLKPEDTAVYYCATYLAEYGYWGQGTQVTVSS”, the “polyreactivity (PSR sort gate)” value is given as “high polyreactivity”.
The value for “QVQLVESGGGLVQAGGSLRLSCAASGRTFQYNAMGWYRQAPGKERELVAAISSYGGSTYYADSVKGRFTISRDNAKNTVYLQMNSLKPEDTAVYYCNAYSQSWNFYGDGDDWGQGTQVTVSS” was “low polyreactivity”; that for “QVQLVESGGGLVQAGGSLRLSCAASGRTFQYNAMGWYRQAPGKERELVAAISWSDGITYYADSVKGSFTISRDNAKNTVYLQMNSLKPEDTAVYYCAAEGYGLSYYFPYDFWGQGTQVTVSS” was “high polyreactivity”.
In the case of “QVQLVESGGGLVQAGGSLRLSCAASGRTFQYNAMGWYRQAPGKQWELVAAISSSGGSTYYADSVKGRFTISRDNAKITVYLKMNSLKPEDTAVYYCNAYSQSWNFYGDGDYWGQGTQVTVSS”, the “polyreactivity (PSR sort gate)” value was “low polyreactivity”.
Regarding “QVQLVESGGGLVQAGGSLRLSCAASGRTFQYYAMGWYRQAPGKERELGAAISGIGTSTSYADSVKGRFTISRDNAKNTVYLQMNSLKPEDTAVYYCAARLLVPGSPWYTNYYWGQGTQVTVSS”, the “polyreactivity (PSR sort gate)” value was “low polyreactivity”.
With “QVQLVESGGGLVQAGGSLRLSCAASGRTFQYYAMGWYRQAPGKERELVAAISWSGGSTYYADSVKGRFTISRDNAKNTVYLQMNSLKPEVTAVYYCAASFRGQIVGYWGQGTQVTVSS”, the “polyreactivity (PSR sort gate)” value was “high polyreactivity”.
As for “QVQLVESGGGLVQAGGSLRLSCAASGRTFQYYAMGWYRQAPGKERELVAAITWTGGSTYYADSVKGRFTISRDNAKNTVYLQKNSLKPEDTAVYYCIARYKTLGSQSRSGPGGKYGYWGQGTQVTVSS”, the “polyreactivity (PSR sort gate)” value was “high polyreactivity”.
The value for “QVQLVESGGGLVQAGGSLRLSCAASGRTFQYYTMGWYRQAPGKERELVAAIRRGGSTYYADSVKGRFTISRDNAKNTVYLEMNSLKPEDTAVYYCAALYAFSLTARGMEYWGQGTQVTVSS” was “high polyreactivity”; that for “QVQLVESGGGLVQAGGSLRLSCAASGRTFRANAMGWYRTAPGKEMELVAAISQRGGNTYYADSVKGRFTISRDNAKYTVYLQMNSLKPEDTAVYYCAADITTYRRGRYEYEFWGQGTQVTVSS” was “high polyreactivity”.
“QVQLVESGGGLVQAGGSLRLSCAASGRTFRDNAMGWYRQAPGKERELVAVITVDSSSTYYADSVKGRFTISRDNAKNTVYLQMNSLKPEDTAVYYCAAELYYFWFDYWGQGTQVTVSS”: the “polyreactivity (PSR sort gate)” value is on record as “low polyreactivity”.
On to “QVQLVESGGGLVQAGGSLRLSCAASGRTFRDYVMGWYRPAPGKERELVAAISTRGASTYYADSVKGRFTISRDNAKNTVYLQMNSLKPEDTAVYYCAARSTRRGNEYDYWGQGTQVTVSS”, for which the “polyreactivity (PSR sort gate)” value is on record as “high polyreactivity”.
As to “QVQLVESGGGLVQAGGSLRLSCAASGRTFRFNAMGWYRQAPGKERELVAAISSSGDSTYYADSVKGRFTISRDNAKNTVYLQMNSLKPEDTAVYYCAVRSRTPRAYYYWGQGTQVTVSS”, the “polyreactivity (PSR sort gate)” value is given as “low polyreactivity”.
In the case of “QVQLVESGGGLVQAGGSLRLSCAASGRTFRFYAMGCYRQAPGKERELVAAINYGGGNTYYADSVKGRFTISRDNAKNTVYLQMNILKPEDTAVYYCAAQYYYRARWFPYDYWGQGTQVTVSS”, the “polyreactivity (PSR sort gate)” value was “high polyreactivity”.
For “QVQLVESGGGLVQAGGSLRLSCAASGRTFRFYAMGWYRQAPGKEREFVAAISRCVGSTYYADSVKGRFTISRDNAKNNVYLQMNSLKPEDTAVYYCNADYRSRYVEYDYWGQGTQVTVSS”, the “polyreactivity (PSR sort gate)” value is on record as “high polyreactivity”.
For “QVQLVESGGGLVQAGGSLRLSCAASGRTFRFYAMGWYRQAPGKEREFVASISRGGITYYADSVKGRFTISRDNAKNTVYLQMNSLKPEDTAVYYCAAGYPVLLERYSSFGGYYYWGHGTQVTVSS”, the “polyreactivity (PSR sort gate)” value is “high polyreactivity”.
On to “QVQLVESGGGLVQAGGSLRLSCAASGRTFRFYAMGWYRQAPGKERELVAAIRWSGGSTYYADSVKGRFTISRDNAKNTVYLQMNSLKPEETAVYYCAAARWSQYRTWMNYWGQGTQVTVSS”, for which the “polyreactivity (PSR sort gate)” value was “high polyreactivity”.
For “QVQLVESGGGLVQAGGSLRLSCAASGRTFRGNAMGWYRQAPGKERELVAAINWGVGSTYYADSVKGRFTISRDNAKNTVYLQMNSLKPEDTAVYYCATRSYRGRDGFGYWGQGTQVTVSS”, the “polyreactivity (PSR sort gate)” value was “high polyreactivity”.
As for “QVQLVESGGGLVQAGGSLRLSCAASGRTFRGNAMGWYRQAPGKERELVAAITSSGGGTYYADSVKGRFTISRDNAKNTVYLQMYSLKPEDTAVYYCAAEYRDGYRFSYDYWGQGTQVTVSS”, the “polyreactivity (PSR sort gate)” value is reported as “low polyreactivity”.
For “QVQLVESGGGLVQAGGSLRLSCAASGRTFRGNDMGWYRQAPGKERELVAAISWSGGGTYYADSVKGRFTISRDNAKNTVYLQMNSLKPEDTAVYYCAADLPHFRYYYWGQGTQVTVSS”, the “polyreactivity (PSR sort gate)” value is given as “low polyreactivity”.
For the sequence “QVQLVESGGGLVQAGGSLRLSCAASGRTFRGYAMGWYRQAPGKERELVAAINFSAGITYYADSVKGRFTISRDNAKNTVYLQMNSLKPEDTAVYYCAAEPEWWWRGYGYWGQGTLVTVSS”, the “polyreactivity (PSR sort gate)” value was “low polyreactivity”.
The value for “QVQLVESGGGLVQAGGSLRLSCAASGRTFRHNDMGWYRQAPGKERELVAAISYSGGSTHYADSVKGRFTISRDNAKNTVYLQMNSLKPEDTAVYYCNRYSYDSHFLYPFRGHDYWGQGTQVTVSS” was “low polyreactivity”; that for “QVQLVESGGGLVQAGGSLRLSCAASGRTFRHNTMGWYRQAPGKEREFVAVITTSGGSTYYADSVKGRFTISRDNAKNTVYLQMNSMKPEDTAVYYCNAKYHLSRSTYYYWGQGTQVTVSS” was “high polyreactivity”; that for “QVQLVESGGGLVQAGGSLRLSCAASGRTFRHYAMGWYRQAPGKDRELVAAISGSGGRTYYADSVKGRFTISRDNAKNTVYLQMNSLKPEDTAVYYCATRHTTRFYWGQGTQVTVSS” was “high polyreactivity”.
Turning to “QVQLVESGGGLVQAGGSLRLSCAASGRTFRHYAMGWYRQAPGKERELVAAISGSGGRTYYADSVKGRFTISRDNAKNTVYLQMNSLKPEDTAVYYCNAYTWTYGEYEYWGQGTQVTVSS”, the “polyreactivity (PSR sort gate)” value is given as “high polyreactivity”.
On to “QVQLVESGGGLVQAGGSLRLSCAASGRTFRIYAMGWYRQAPGKERELVAAIRWSGGTTYYADSVKGRFTISRDNAKNTVYLQRNSLKPEDTAVYYCAADSTNRYDYWGQGTQVTVSS”, for which the “polyreactivity (PSR sort gate)” value is recorded as “high polyreactivity”.
Turning to “QVQLVESGGGLVQAGGSLRLSCAASGRTFRKYAMGWYRQAPGKEMELVAGITSIGGRTYYADSVKGRFTISRDNAKNTVYLQMNSLKPEDTAVYYCAADSIGRKNWSLHSNYWGQGTQVTVSS”, the “polyreactivity (PSR sort gate)” value is given as “low polyreactivity”.
Turning to “QVQLVESGGGLVQAGGSLRLSCAASGRTFRKYAMGWYRQAPGKERELVAGITSIGGRTYYADSVKGRFTISRDNAKNTVYLQMNSLKPEDTAVYYCAAEPYGGGVKHSAYDYCGQGTQVTVSS”, the “polyreactivity (PSR sort gate)” value is reported as “low polyreactivity”.
Consider “QVQLVESGGGLVQAGGSLRLSCAASGRTFRKYTMGWYRQAPGKERELVAAITLSGGSTYYADSVKGRFTISRDNAKNTVYLQMNSLKPEDTAVYYCAARYNRGAFDYWGQGTQVTVSS”, for which the “polyreactivity (PSR sort gate)” value is recorded as “high polyreactivity”.
Next, “QVQLVESGGGLVQAGGSLRLSCAASGRTFRLFAMGWYRQAPGKERELVAAIRSGGNTNYADSVKGRFTISRDNAKNTVYLQMNSLKPEDTAVYYCAATTYVVASRYVGSLGDDYWGHGTQVTVSS”: “high polyreactivity”; “QVQLVESGGGLVQAGGSLRLSCAASGRTFRLYAMGWHRQAPGKERELVAAITRGGRTNYADSVKGRFTISRDNAKNTVYLQMNSLKPEDTAVYYCAARYVERHTDYYYWGQGTQVTVSS”: “low polyreactivity”; “QVQLVESGGGLVQAGGSLRLSCAASGRTFRLYAMGWYRQAHGKERELVARISRGGSTYYADSVKGRFTISRDNAKNTVYLQMNSLKPEDTAVYYCAAVAYALGFASKEDYWGQGTQVTVSS”: “high polyreactivity”.
For the sequence “QVQLVESGGGLVQAGGSLRLSCAASGRTFRLYAMGWYRQAPGKERALVAAITGVGSTNYADSVKGRFTISRDNAKNTVYLQMNSLKPEDTAVYYCAAYYWSQVLIQGYYSWGQGTQVTVSS”, the “polyreactivity (PSR sort gate)” value was “high polyreactivity”.
In the case of “QVQLVESGGGLVQAGGSLRLSCAASGRTFRLYAMGWYRQAPGKERELVAAITRGGRTNYADSVKGRFTISRDNAKNTVYLQMNSLKPEDPAVYYCAARYVERHTDYYYWGQGTQVTVSS”, the “polyreactivity (PSR sort gate)” value was “low polyreactivity”.
As for “QVQLVESGGGLVQAGGSLRLSCAASGRTFRNNAMGWYRQAPGKERELVASISKSGGRTYYADSVKGRFTISRDNAKNTVYLQMNSLKPEDTAVYYCAAYRIHVYPAGLSWQYYYELDYWGQGTQVTVSS”, the “polyreactivity (PSR sort gate)” value is “high polyreactivity”.
The value for “QVQLVESGGGLVQAGGSLRLSCAASGRTFRNYAMGWYRQAPGKERELVAGITYSGGSTFYADSVKGRFTISRDNAKNTVYLQMNSLKPEDTAVYYCAAVYVQYYWLGRSRGLDYWGQGTQVTVSS” was “high polyreactivity”.
Regarding “QVQLVESGGGLVQAGGSLRLSCAASGRTFRPNAMGWYRQAPGKERELVASITRRGGTTYYADSVKGRFTNSRDNAKNTVYLQMNSLKPEDTAFYYCIGPRGYSSTRNGYWGQGTQVTVSS”, the “polyreactivity (PSR sort gate)” value was “high polyreactivity”.
Regarding “QVQLVESGGGLVQAGGSLRLSCAASGRTFRPYAMGWYIQAPGKERELVAAIDSSGTSTYYADSVKGRFTISRDNAKNTVYLQMNSLKPEDTAVYYCAKAWPDHWYSRYDYWGQGTQVTVSS”, the “polyreactivity (PSR sort gate)” value is listed as “low polyreactivity”.
In the case of “QVQLVESGGGLVQAGGSLRLSCAASGRTFRPYAMGWYRQAPGKERELVAAIDSSGTSTYYADSVKGRFTISRDNAKNTVYLQMNCLKPEDTAVYYCNTSLKRRRLRFNYWGQGTQVTVSS”, the “polyreactivity (PSR sort gate)” value is listed as “low polyreactivity”.
Regarding “QVQLVESGGGLVQAGGSLRLSCAASGRTFRPYAMGWYRQAPGTERELVARITSGGGRTYYADSVKGRFTISRDNAKNTVYLQMNSLKPEDNAVYYCNKAIYSLYRDGYTNFDYWGQGTQVTVSS”, the “polyreactivity (PSR sort gate)” value is listed as “high polyreactivity”.
With “QVQLVESGGGLVQAGGSLRLSCAASGRTFRPYPMGWYRQAPGKERELVAAITRSGGSTYYADSVKGRFTISRDNAKNTVYLQMNSLKPEDTAVYYCAAYNTYSDTYDYWGQGTQVTVSS”, the “polyreactivity (PSR sort gate)” value is “low polyreactivity”.
